We go through 30 molecules from patent EP2649983A1, “Compounds which inhibit neuronal exocytosis (II)” (Lipotec, S.A., priority 2012, dated 2013).

Non-standard residues stand in square brackets, D forms with d. *: point of attachment. Met(O2) = CS(=O)(=O)CC[C@H](N)C(=O)O; Palmitoyl = CCCCCCCCCCCCCCCC(=O)*; NHhexadecyl = CCCCCCCCCCCCCCCCN*; Met(O) = CS(=O)CC[C@H](N)C(=O)O; Myristoyl = CCCCCCCCCCCCCC(=O)*

B1: Ac-SEQ ID NO:1-NH2 (peptide)
peptide: Ac-EHLKQWM-NH2
B2: Ac-SEQ ID NO:23-NH2 (peptide)
peptide: Ac-NDLKDWM-NH2
B3: Palm-SEQ ID NO:24-NH2 (peptide)
peptide: Palmitoyl-DHFQQRM-NH2
B4: Ac-SEQ ID NO:30-NH2 (peptide)
peptide: Ac-EHFLQWM-NH2
B5: Ac-SEQ ID NO:14-NH2 (peptide)
peptide: Ac-EDLKRWM-NH2
B6: Palm-SEQ ID NO:3-NH2 (peptide)
peptide: Palmitoyl-QHLHNVM-NH2
B7: Ac-SEQ ID NO:8-NH2 (peptide)
peptide: Ac-EHLKKWM-NH2
B8: Palm-SEQ ID NO:14-NH2 (peptide)
peptide: Palmitoyl-EDLKRWM-NH2
B9: Ac-SEQ ID NO:15-NH2 (peptide)
peptide: Ac-NHFLNWM-NH2
B10: Ac-SEQ ID NO:22-NH2 (peptide)
peptide: Ac-DHLKKWM-NH2
B11: Palm-SEQ ID NO:34-NH2 (peptide)
peptide: Palmitoyl-DHFLNWM-NH2
B12: Ac-SEQ ID NO:56-NH2 (peptide)
peptide: Ac-DHFLDW[Met(O)]-NH2
B13: Ac-SEQ ID NO:34-NH2 (peptide)
peptide: Ac-DHFLNWM-NH2
B14: Ac-SEQ ID NO:31-NH2 (peptide)
peptide: Ac-NHLKNWM-NH2
B15: Ac-SEQ ID NO:25-NH2 (peptide)
peptide: Ac-DHFLDWM-NH2
B16: Ac-SEQ ID NO:14-NH-(CH2)15-CH3 (peptide)
peptide: Ac-EDLKRWM-NHhexadecyl
B17: H-SEQ ID NO:1-NH2 (peptide)
peptide: H-EHLKQWM-NH2
B18: Palm-SEQ ID NO:1-NH2 (peptide)
peptide: Palmitoyl-EHLKQWM-NH2
B19: Palm-SEQ ID NO:15-NH2 (peptide)
peptide: Palmitoyl-NHFLNWM-NH2
B20: Ac-SEQ ID NO:24-NH2 (peptide)
peptide: Ac-DHFQQRM-NH2
B21: Ac-SEQ ID NO:3-NH2 (peptide)
peptide: Ac-QHLHNVM-NH2
B22: Ac-SEQ ID NO:1-OH (peptide)
peptide: Ac-EHLKQWM-OH
B23: Ac-SEQ ID NO:2-NH2 (peptide)
peptide: Ac-QDFLHWM-NH2
B24: Ac-SEQ ID NO:61-NH2 (peptide)
peptide: Ac-DHFLDW[Met(O2)]-NH2
B25: Ac-SEQ ID NO:12-NH2 (peptide)
peptide: Ac-QHLKEWM-NH2
B26: Palm-SEQ ID NO:25-NH2 (peptide)
peptide: Palmitoyl-DHFLDWM-NH2
B27: Ac-SEQ ID NO:27-NH2 (peptide)
peptide: Ac-QHLKNWM-NH2
B28: Ac-SEQ ID NO:13-NH2 (peptide)
peptide: Ac-RHFLQWM-NH2
B29: Myr-SEQ ID NO:15-NH2 (peptide)
peptide: Myristoyl-NHFLNWM-NH2
B30: Ac-SEQ ID NO:32-NH2 (peptide)
peptide: Ac-NHLKHWM-NH2

The target in the first assay is SNARE complex (VAMP, syntaxin and SNAP-25 bound to GST) (UniProt P60880). Description: competition ELISA: VAMP on plate, SNAP-25-GST + syntaxin, anti-GST detection; compound at 0.5 mM.
SNARE complex (VAMP, syntaxin and SNAP-25 bound to GST), sequence (P60880 whole entry, one chain of several): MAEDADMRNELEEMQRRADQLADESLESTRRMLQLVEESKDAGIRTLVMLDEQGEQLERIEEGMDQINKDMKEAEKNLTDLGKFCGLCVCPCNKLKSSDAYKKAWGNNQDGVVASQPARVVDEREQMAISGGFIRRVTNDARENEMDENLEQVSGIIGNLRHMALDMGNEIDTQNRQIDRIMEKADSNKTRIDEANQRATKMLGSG
As for B1, the % inhibition formation SNARE complex was 33%.
With B2, the % inhibition formation SNARE complex was found to be 10%.
The same measure, in the same setting: next, B3: 36%; B4: 24%.
As for B5, the % inhibition formation SNARE complex stood at 43%.
Still for that read-out and setting: next, B6: 20%.
Same read-out and setting: for B7 the value was 11%.
B8: the % inhibition formation SNARE complex came to 18%.
On the same count and under the same terms, for B9 the value was 48%.
Same read-out and setting: for B10 the value was 18%.
Still for that read-out and setting: for B11 the value was 19%; for B12, 16%.
B13: the % inhibition formation SNARE complex amounted to 27%.
Same read-out and setting: for B14 the value was 26%.
Still for that read-out and setting: for B15 the value was 40%; for B16, 11%; for B17, 30%.
With B18, the % inhibition formation SNARE complex came out at 21%.
Same read-out and setting: next, B19: 18%; B20: 41%; B21: 31%.
Same read-out and setting: for B22 the value was 29%; for B23, 26%; for B24, 8%.
The same measure, in the same setting: for B25 the value was 20%.
In the case of B26, the % inhibition formation SNARE complex is 24%.

The target is the same in another assay. Description: competition ELISA: VAMP on plate, SNAP-25-GST + syntaxin, anti-GST detection; compound at 2.5 mM. Background: In an ELISA, binding on a coated surface is turned into a signal by an enzyme label.
Take B1: the % inhibition formation SNARE complex turned out to be 63%.
B2: the % inhibition formation SNARE complex worked out at 60%.
In the case of B3, the % inhibition formation SNARE complex was 44%.
For the molecule B4, the % inhibition formation SNARE complex turned out to be 71%.
Consider B5, for which the % inhibition formation SNARE complex was found to be 67%.
On the same count and under the same terms, next, B6: 51%; B7: 44%; B8: 42%.
Consider B9, for which the % inhibition formation SNARE complex is 42%.
With B10, the % inhibition formation SNARE complex is 72%.
As for B11, the % inhibition formation SNARE complex worked out at 51%.
Still for that read-out and setting: for B27 the value was 14%.
The same measure, in the same setting: next, B12: 64%.
Still for that read-out and setting: for B13 the value was 85%; for B14, 59%; for B15, 71%.
With B16, the % inhibition formation SNARE complex amounted to 35%.
Same read-out and setting: next, B17: 58%.
The same measure, in the same setting: next, B18: 47%.
Turning to B28, the % inhibition formation SNARE complex was 20%.
Still for that read-out and setting: for B19 the value was 21%; for B20, 55%.
With B29, the % inhibition formation SNARE complex was 19%.
The same measure, in the same setting: next, B21: 64%.
Take B22: the % inhibition formation SNARE complex stood at 59%.
The same measure, in the same setting: for B23 the value was 64%.
Take B24: the % inhibition formation SNARE complex turned out to be 26%.
As for B25, the % inhibition formation SNARE complex was determined as 71%.
The same measure, in the same setting: for B30 the value was 19%; for B26, 53%.

In another assay the target is SNARE complex (VAMP, syntaxin and SNAP-25) (UniProt P60880). Description: SDS-PAGE of SNARE complex: VAMP + syntaxin + compound, then SNAP-25; image analysis; compound at 1 mM.
SNARE complex (VAMP, syntaxin and SNAP-25), sequence (P60880 whole entry, one chain of several): as above
With B1, the % inhibition formation SNARE complex worked out at 59%.
Same read-out and setting: next, B3: 17%; B5: 83%.
Still for that read-out and setting: next, B8: 41%.
Still for that read-out and setting: next, B9: 50%; B12: 40%.
With B13, the % inhibition formation SNARE complex came to 14%.
Regarding B15, the % inhibition formation SNARE complex stood at 83%.
In the case of B16, the % inhibition formation SNARE complex is 43%.
For the molecule B18, the % inhibition formation SNARE complex stood at 26%.
Consider B19, for which the % inhibition formation SNARE complex turned out to be 22%.
The same measure, in the same setting: next, B20: 48%; B29: 23%.
Same read-out and setting: for B23 the value was 37%; for B24, 44%.
Same read-out and setting: next, B26: 36%.

For a further assay the target is unchanged. The assay is described as follows: SDS-PAGE of SNARE complex: VAMP + syntaxin + compound, then SNAP-25; image analysis; compound at 5 mM.
Consider B1, for which the % inhibition formation SNARE complex was found to be 100%.
In the case of B3, the % inhibition formation SNARE complex came to 66%.
B5: the % inhibition formation SNARE complex was 100%.
Regarding B8, the % inhibition formation SNARE complex was 93%.
On the same count and under the same terms, next, B9: 100%; B12: 91%.
Same read-out and setting: for B13 the value was 59%; for B15, 100%; for B16, 85%.
The same measure, in the same setting: for B18 the value was 72%; for B19, 74%.
B20: the % inhibition formation SNARE complex is 100%.
Turning to B29, the % inhibition formation SNARE complex was 76%.
As for B23, the % inhibition formation SNARE complex was found to be 80%.
As to B24, the % inhibition formation SNARE complex came out at 89%.
Consider B26, for which the % inhibition formation SNARE complex came out at 85%.
